Assay results taken from the supplement of paper PMC11246515.
± gives the standard deviation of the averaged measurements.

Test: total protein half-life in vivo (active degradation + dilution); higher = more stable protein
[1] = E. coli NCM3722 delta-clpP delta-lon delta-hslV, growth: N-lim chemostat, doubling time 6 h
[2] = E. coli NCM3722 delta-clpP, growth: N-lim chemostat, doubling time 6 h
[3] = E. coli NCM3722 delta-hslV, growth: N-lim chemostat, doubling time 6 h
[4] = E. coli NCM3722 delta-lon, growth: N-lim chemostat, doubling time 6 h
[5] = E. coli NCM3722 delta-smpB, growth: N-lim chemostat, doubling time 6 h
[6] = wild type E. coli NCM3722, growth: C-lim chemostat, doubling time 6 h
[7] = wild type E. coli NCM3722, growth: C-lim chemostat, doubling time 12 h
[8] = wild type E. coli NCM3722, growth: N-lim chemostat, doubling time 6 h
[9] = wild type E. coli NCM3722, growth: P-lim chemostat, doubling time 6 h
[10] = wild type E. coli NCM3722, growth: P-lim chemostat, doubling time 12 h
[11] = wild type E. coli NCM3722, growth: C-lim chemostat, doubling time 3 h
[12] = wild type E. coli NCM3722, growth: N-lim chemostat, doubling time 12 h

Sequence | total protein half-life in vivo [1] | total protein half-life in vivo [2] | total protein half-life in vivo [3] | total protein half-life in vivo [4] | total protein half-life in vivo [5] | total protein half-life in vivo [6] | total protein half-life in vivo [7] | total protein half-life in vivo [8] | total protein half-life in vivo [9] | total protein half-life in vivo [10] | total protein half-life in vivo [11] | total protein half-life in vivo [12]
MCGRFAQSQTREDYLALLAEDIERDIPYDPEPIGRYNVAPGTKVLLLSERDEHLHLDPVFWGYAPGWWDKPPLINARVETAATSRMFKPLWQHGRAICFADGWFEWKKEGDKKQPFFIYRADGQPIFMAAIGSTPFERGDEAEGFLIVTAAADQGLVDIHDRRPLVLSPEAAREWMRQEISGKEASEIAASGCVPANQFSWHPVSRAVGNVKNQGAELIQPV | 4.83 ± 0.49 h | 4.014 ± 0.026 h | 4.54 h | 4.55 ± 0.27 h | 3.52 ± 0.22 h | 5.39 ± 0.18 h | 9.42 ± 0.51 h | 3.45 ± 0.065 h | 5.07 ± 0.74 h | 9.67 ± 1.4 h | – | –
MSQVLITGATGLVGGHLLRMLINEPKVNAIAAPTRRPLGDMPGVFNPHDPQLSDALAQVTDPIDIVFCCLGTTRREAGSKEAFIHADYTLVVDTALTGRRLGAQHMLVVSAMGANAHSPFFYNRVKGEMEEALIAQNWPKLTIARPSMLLGDRSKQRMNETLFAPLFRLLPGNWKSIDARDVARVMLAESMRPEHEGVTILSSSELRKRAE | 6.13 ± 0.065 h | 5.36 ± 0.4 h | 5.98 ± 0.48 h | 6.26 ± 0.69 h | – | – | – | 5.69 ± 1.1 h | – | – | 3.24 ± 0.14 h | –
MSFDLIIKNGTVILENEARVVDIAVKGGKIAAIGQDLGDAKEVMDASGLVVSPGMVDAHTHISEPGRSHWEGYETGTRAAAKGGITTMIEMPLNQLPATVDRASIELKFDAAKGKLTIDAAQLGGLVSYNIDRLHELDEVGVVGFKCFVATCGDRGIDNDFRDVNDWQFFKGAQKLGELGQPVLVHCENALICDELGEEAKREGRVTAHDYVASRPVFTEVEAIRRVLYLAKVAGCRLHVCHVSSPEGVEEVTRARQEGQDVTCESCPHYFVLDTDQFEEIGTLAKCSPPIRDLENQKGMWEKLFNGEIDCLVSDHSPCPPEMKAGNIMKAWGGIAGLQSCMDVMFDEAVQKRGMSLPMFGKLMATNAADIFGLQQKGRIAPGKDADFVFIQPNSSYVLTNDDLEYRHKVSPYVGRTIGARITKTILRGDVIYDIEQGFPVAPKGQFILKHQQ | 4.05 h | – | – | 3.35 h | – | 2.5 ± 0.8 h | 2.38 ± 0.29 h | – | – | 5.33 h | 1.23 ± 0.55 h | –
MAIRLYKLAVALGVFIVSAPAFSHGHHSHGKPLTEVEQKAANGVFDDANVQNRTLSDWDGVWQSVYPLLQSGKLDPVFQKKADADKTKTFAEIKDYYHKGYATDIEMIGIEDGIVEFHRNNETTSCKYDYDGYKILTYKSGKKGVRYLFECKDPESKAPKYIQFSDHIIAPRKSSHFHIFMGNDSQQSLLNEMENWPTYYPYQLSSEEVVEEMMSH | 5.56 h | – | 7.32 ± 0.35 h | – | – | 6.23 ± 0.17 h | 12.8 ± 0.55 h | – | 5.89 ± 0.14 h | – | 3.24 ± 0.14 h | > 16 h
MGNRTKEDELYREMCRVVGKVVLEMRDLGQEPKHIVIAGVLRTALANKRIQRSELEKQAMETVINALVK [P0ACX5] | – | – | 3.93 h | – | – | 4.79 h | – | – | 5.05 ± 1.9 h | 12.6 ± 1.2 h | > 4 h | 15.3 h
MSQSLFSQPLNVINVGIAMFSDDLKKQHVEVTQLDWTPPGQGNMQVVQALDNIADSPLADKIAAANQQALERIIQSHPVLIGFDQAINVVPGMTAKTILHAGPPITWEKMCGAMKGAVTGALVFEGLAKDLDEAAELAASGEITFSPCHEHDCVGSMAGVTSASMFMHIVKNKTYGNIAYTNMSEQMAKILRMGANDQSVIDRLNWMRDVQGPILRDAMKIIGEIDLRLMLAQALHMGDECHNRNNAGTTLLIQALTPGIIQAGYSVEQQREVFEFVASSDYFSGPTWMAMCKAAMDAAHGIEYSTVVTTMARNGVEFGLRVSGLPGQWFTGPAQQVIGPMFAGYKPEDSGLDIGDSAITETYGIGGFAMATAPAIVALVGGTVEEAIDFSRQMREITLGENPNVTIPLLGFMGVPSAIDITRVGSSGILPVINTAIAHKDAGVGMIGAGIVHPPFACFEKAILGWCERYGV | 5.39 ± 0.44 h | – | – | – | – | 4.45 h | 7.84 h | 2.89 h | – | 8.94 ± 0.66 h | – | 4.45 h
MDKSKRHLAWWVVGLLAVAAIVAWWLLRPAGVPEGFAVSNGRIEATEVDIASKIAGRIDTILVKEGKFVREGEVLAKMDTRVLQEQRLEAIAQIKEAQSAVAAAQALLEQRQSETRAAQSLVNQRQAELDSVAKRHTRSRSLAQRGAISAQQLDDDRAAAESARAALESAKAQVSASKAAIEAARTNIIQAQTRVEAAQATERRIAADIDDSELKAPRDGRVQYRVAEPGEVLAAGGRVLNMVDLSDVYMTFFLPTEQAGTLKLGGEARLILDAAPDLRIPATISFVASVAQFTPKTVETSDERLKLMFRVKARIPPELLQQHLEYVKTGLPGVAWVRVNEELPWPDDLVVRLPQ | 7.13 ± 1.2 h | 6.23 ± 0.4 h | 6.68 ± 0.17 h | 6.78 ± 0.59 h | 5.93 ± 0.0093 h | 6.21 ± 0.2 h | 13 ± 1 h | 6.37 ± 0.43 h | 6.03 ± 0.35 h | 12.9 ± 0.49 h | 3.27 ± 0.32 h | 13.5 ± 1.4 h
MPEPVAEPALNGLRLNLRIVSIVMFNFASYLTIGLPLAVLPGYVHDVMGFSAFWAGLVISLQYFATLLSRPHAGRYADSLGPKKIVVFGLCGCFLSGLGYLTAGLTASLPVISLLLLCLGRVILGIGQSFAGTGSTLWGVGVVGSLHIGRVISWNGIVTYGAMAMGAPLGVVFYHWGGLQALALIIMGVALVAILLAIPRPTVKASKGKPLPFRAVLGRVWLYGMALALASAGFGVIATFITLFYDAKGWDGAAFALTLFSCAFVGTRLLFPNGINRIGGLNVAMICFSVEIIGLLLVGVATMPWMAKIGVLLAGAGFSLVFPALGVVAVKAVPQQNQGAALATYTVFMDLSLGVTGPLAGLVMSWAGVPVIYLAAAGLVAIALLLTWRLKKRPPEHVPEAASSS | – | 3.62 h | – | – | – | – | – | – | – | – | – | –
MEFAFYICGLIAILATLRVITHTNPVHALLYLIISLLAISGVFFSLGAYFAGALEIIVYAGAIMVLFVFVVMMLNLGGSEIEQERQWLKPQVWIGPAILSAIMLVVIVYAILGVNDQGIDGTPISAKAVGITLFGPYVLAVELASMLLLAGLVVAFHVGREERAGEVLSNRKDDSAKRKTEEHA [P0AFE0] | – | – | 4.21 h | – | 6.02 h | 6.7 h | – | 6.07 h | 6.02 h | 13.8 ± 2.9 h | – | 11.5 h
MQKEQLSALMDGETLDSELLNELAHNPEMQKTWESYHLIRDSMRGDTPEVLHFDISSRVMAAIEEEPVRQPATLIPEAQPAPHQWQKMPFWQKVRPWAAQLTQMGVAACVSLAVIVGVQHYNGQSETSQQPETPVFNTLPMMGKASPVSLGVPSEATANNGQQQQVQEQRRRINAMLQDYELQRRLHSEQLQFEQAQTQQAAVQVPGIQTLGTQSQ [P0AFX7] | – | – | – | – | – | 0.455 ± 0.09 h | 0.469 h | 0.895 ± 0.046 h | 0.801 h | 1.03 ± 0.45 h | – | 0.953 ± 0.18 h
MLSKQIPLGIYEKALPAGECWLERLQLAKTLGFDFVEMSVDETDDRLSRLNWSREQRLALVNAIVETGVRVPSMCLSAHRRFPLGSEDDAVRAQGLEIMRKAIQFAQDVGIRVIQLAGYDVYYQEANNETRRRFRDGLKESVEMASRAQVTLAMEIMDYPLMSSISKALGYAHYLNNPWFQLYPDIGNLSAWDNDVQMELQAGIGHIVAVHVKDTKPGVFKNVPFGEGVVDFERCFETLKQSGYCGPYLIEMWSETAEDPAAEVAKARDWVKARMAKAGMVEAA | 5.97 h | – | – | – | – | – | – | – | – | – | – | –
MAQITTTDANEFSSSAEFIPMRGFSNCHLQTMLPRLFRRQVKFTPYWQRLELPDGDFVDLAWSENPAQAQHKPRLVVFHGLEGSLNSPYAHGLVEAAQKRGWLGVVMHFRGCSGEPNRMHRIYHSGETEDASWFLRWLQREFGHAPTAAVGYSLGGNMLACLLAKEGNDLPVDAAVIVSAPFMLEACSYHMEKGFSRVYQRYLLNLLKANAARKLAAYPGTLPINLAQLKSVRRIREFDDLITARIHGYADAIDYYRQCSAMPMLNRIAKPTLIIHAKDDPFMDHQVIPKPESLPPQVEYQLTEHGGHVGFIGGTLLHPQMWLESRIPDWLTTYLEAKSC | 3.69 h | – | – | – | – | – | 3.84 h | – | 2.34 h | 4.3 h | – | –
MHCPFCFAVDTKVIDSRLVGEGSSVRRRRQCLVCNERFTTFEVAELVMPRVVKSNDVREPFNEEKLRSGMLRALEKRPVSSDDVEMAINHIKSQLRATGEREVPSKMIGNLVMEQLKKLDKVAYIRFASVYRSFEDIKEFGEEIARLED [P0A8D0] | 6.05 ± 0.84 h | 5.91 ± 0.41 h | 4.362 ± 0.017 h | – | 4 ± 0.71 h | 4.6 ± 0.41 h | 9.06 ± 0.4 h | 4.15 ± 0.58 h | 4.677 ± 0.038 h | 10.76 ± 0.082 h | 2.98 ± 1.4 h | 6.44 ± 0.094 h
